Experimental data: paper PMC5700200

Biological target: FLAG-tagged β1 adrenergic receptor (UniProt P34971)
Assay: proximity ligation; in situ PLA (Duolink) in HEK293 cells stably expressing FLAG-tagged β1AR or β2AR; 10 μM carvedilol, isoproterenol or other βAR ligands for 5 min, with or without 10 μM propranolol for 30 min; fixed, permeabilised; rabbit anti-β1AR (or β2AR) with mouse anti-Gαi

Sequence of UniProt P34971 (P34971 whole entry): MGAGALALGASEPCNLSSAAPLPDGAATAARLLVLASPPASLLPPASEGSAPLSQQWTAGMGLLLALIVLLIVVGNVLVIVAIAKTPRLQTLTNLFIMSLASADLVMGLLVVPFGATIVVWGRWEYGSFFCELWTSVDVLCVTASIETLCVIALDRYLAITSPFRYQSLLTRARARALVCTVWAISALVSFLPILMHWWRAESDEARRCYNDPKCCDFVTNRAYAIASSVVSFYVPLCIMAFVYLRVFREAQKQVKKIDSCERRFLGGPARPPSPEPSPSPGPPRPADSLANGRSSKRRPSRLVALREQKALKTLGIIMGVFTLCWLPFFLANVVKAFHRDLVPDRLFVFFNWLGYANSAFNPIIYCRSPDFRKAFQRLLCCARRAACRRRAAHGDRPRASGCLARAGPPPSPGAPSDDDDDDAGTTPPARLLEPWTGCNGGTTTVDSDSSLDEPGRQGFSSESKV

## Gαi (from UniProt P08754 1-354) (natural protein)
  fold increase in the PLA signal after carvedilol over unstimulated cells: > 2 fold
